Measured values from patent US20250257133A1 (ADAGENE PTE, published 2025).

Target: Human CD28 (ELISAs of Examples 4 and 13) (human, UniProt P10747 19-152, limits assumed)
Test: ELISA

EC50	Binder
30.3 nM	TY29109 (bispecific antibody, human IgG1, kappa, N297A, anti-HER2 Fab x CD28 scFv WT (VH-VL)-Fc; also called TY29109 (WT)) light: not shown heavy: EVQLVESGGGLVQPGGSLRLSCAASGFTFTDYTMDWVRQAPGKGLEWVADVNPNSGGSIYNQRFKGRFTLSVDRSKNTLYLQMNSLRAEDTAVYYCARNLGPSFYFDYWGQGTLVTVSSASTKGPSVFPLAPSSKSTSGGTAALGCLVKDYFPEPVTVSWNSGALTSGVHTFPAVLQSSGLYSLSSVVTVPSSSLGTQTYICNVNHKPSNTKVDKKVEPKSCDKTHTCPPCPAPELLGGPSVFLFPPKPKDTLMISRTPEVTCVVVDVSHEDPEVKFNWYVDGVEVHNAKTKPREEQYASTYRVVSVLTVLHQDWLNGKEYKCKVSNKALPAPIEKTISKAKGQPREPQVYTLPPSRKKLTKNQVKLTCLVKGFYPSDIAVEWESNGQPENNYKTTPPVLDCDGSFFLYSKLTVDKSRWQQGNVFSCSVMHEALHNHYTQKSLSLSPGK EVQLVESGGGLVQPGGSLRLSCAASGFSLSTGGVGVSWIRQAPGKGLEWIGEIYHSGSTYYSPSLKSRVTISRDNSKNTLYLQLNSLRAEDTAVYYCARYEYYYYDFDYWGQGTLVTVSSGGGGSGGGGSGGGGSGGGGSDIQLTQSPSSLSASVGDRVTITCRASQSVDFHGISFLHWYQQKPGKAPKLLIYAASSLQSGVPSRFSGSGSGTDFTLTISSLQPEDFATYYCQQSYRSPRTFGQGTKVEIKEPKSSDKTHTCPPCPAPELLGGPSVFLFPPKPKDTLMISRTPEVTCVVVDVSHEDPEVKFNWYVDGVEVHNAKTKPREEQYASTYRVVSVLTVLHQDWLNGKEYKCKVSNKALPAPIEKTISKAKGQPREPQVYTDPPSRDELTKNQVSLTCLVDGFYPSDIAVEWESNGQPENCYKTTPPVLDSDGSFFLYSKLTVDKSRWQQGNVFSCSVMHEALHNHYTQDSLSLSPGK
9.27 nM	TY29306 (bispecific antibody, human IgG1, kappa, N297A, anti-HER2 Fab x CD28 scFv BC8227 (VH-VL)-Fc) light: not shown heavy: EVQLVESGGGLVQPGGSLRLSCAASGFTFTDYTMDWVRQAPGKGLEWVADVNPNSGGSIYNQRFKGRFTLSVDRSKNTLYLQMNSLRAEDTAVYYCARNLGPSFYFDYWGQGTLVTVSSASTKGPSVFPLAPSSKSTSGGTAALGCLVKDYFPEPVTVSWNSGALTSGVHTFPAVLQSSGLYSLSSVVTVPSSSLGTQTYICNVNHKPSNTKVDKKVEPKSCDKTHTCPPCPAPELLGGPSVFLFPPKPKDTLMISRTPEVTCVVVDVSHEDPEVKFNWYVDGVEVHNAKTKPREEQYASTYRVVSVLTVLHQDWLNGKEYKCKVSNKALPAPIEKTISKAKGQPREPQVYTLPPSRKKLTKNQVKLTCLVKGFYPSDIAVEWESNGQPENNYKTTPPVLDCDGSFFLYSKLTVDKSRWQQGNVFSCSVMHEALHNHYTQKSLSLSPGK EVQLVESGGGLVQPGGSLRLSCAASGFSLSTGGVGVSWIRQAPGKGLEWIGSIYHSGSTYYNPSLKSRVTISRDNSKNTLYLQLNSLRAEDTAVYYCARYEYDYYAFDYWGQGTLVTVSSGGGGSGGGGSGGGGSGGGGSDIQLTQSPSSLSASVGDRVTITCRASQSVDFYGKSFLHWYQQKPGKAPKLLIYAASSLESGVPSRFSGSGSGTDFTLTISSLQPEDFATYYCQQSYRSPPTFGQGTKVEIKEPKSSDKTHTCPPCPAPELLGGPSVFLFPPKPKDTLMISRTPEVTCVVVDVSHEDPEVKFNWYVDGVEVHNAKTKPREEQYASTYRVVSVLTVLHQDWLNGKEYKCKVSNKALPAPIEKTISKAKGQPREPQVYTDPPSRDELTKNQVSLTCLVDGFYPSDIAVEWESNGQPENCYKTTPPVLDSDGSFFLYSKLTVDKSRWQQGNVFSCSVMHEALHNHYTQDSLSLSPGK
